These results are taken from US20140170153A1 (Novo Nordisk, published 2014).

Where a chain is given by its changes, count along the chain named. Names and notes keep the numbering of the source. Values joined by “and” are separate entries in the source; they are usually repeats but may differ in a detail not shown here. Equal values may be shown once. Bounds are passed on as bounds.

For test [1], the target named is T1, human recombinant IL-21 (expressed in E. coli as the mature peptide); residues 30-162 of SEQ ID NO: 1 with an … (human, UniProt Q9HBE4 30-162).
T1 construct: The SPR and cell assays say only IL-21 / hIL-21 / recombinant human IL-21; also called hIL-21; human IL-21
Kind of test: SPR Biacore T200, 25 C; mAb captured by anti-human Fc, hIL-21 analyte, 1:1 Langmuir; Exp 2. The protocol: (§1) Anti-human Fc monoclonal antibodies from Biacore human Fc capture kit was immobilized onto flow cells of a CM4 sensor chip according to the manufacturer's instructions. The final immobilization level of capture antibody was approximately 2,500 RU in one experiment. […] Binding of hIL-21 protein was conducted by injecting analyte over all flow cells to allow for comparative analyses of binding to different captured anti-IL-21 antibodies relative to binding to the reference flow cell. hIL-21 protein was diluted serially 1:3 to 2-162 nM into running buffer, injected at 100 μl/min for 210 s and allowed to dissociate for 600 or 14000 s. The CM4 surface was regenerated after each injection cycle of analyte via two injections of 3M MgCl₂ at 50 μl/min. This regeneration step removed the anti-IL-21 antibody and any bound IL-21 from the immobilized capture antibody surface, and allowed for the subsequent binding of the next interaction sample pair.
(§2) No significant non-specific binding to the reference control surface was observed. Binding curves were processed by double referencing (subtraction of reference surface signals as well as blank buffer injections over captured anti-IL-21 antibodies). This allowed correction for instrument noise, bulk shift and drift during sample injections.

In test [2] the target is T1, human recombinant IL-21 (expressed in …). Kind of test: SPR Biacore T200, 25 C; mAb captured by anti-human Fc, IL-21 analyte, 1:1 Langmuir. The protocol: (§3) Experiments were run at 25° C. and the samples were stored at 10° C. in the sample compartment. The signal (RU, response units) reported by the Biacore is directly correlated to the mass on the individual sensor chip surfaces in four serial flow cells.
Anti-human Fc monoclonal antibody from Biacore human Fc capture kit was immobilized onto flow cells of a CM4 sensor chip according to the manufacturer's instructions. The final immobilization level of capture antibody was approximately 2,000 RU in one experiment. […] Capture of the human anti-IL-21 antibody mAb37 was conducted by diluting the antibody to 0.1 μg/ml into running buffer (10 mM Hepes 0.3 M NaCl, 5 mM CaCl2, 0.05% surfactant P20, pH 8.0 containing 1 mg/ml BSA) and injected at 10 μl/min for 180 s in one of flow cells 2-4, creating a reference surface in flow cell 1 with only anti-Fc antibody immobilized. […] Binding of IL-21 protein was conducted by injecting analyte over all flow cells to allow for comparative analyses of binding to different captured anti-IL-21 antibodies relative to binding to the reference flow cell. IL-21 protein was diluted serially 1:3 to 0.2-54 nM into running buffer, injected at 100 μl/min for 210 s and allowed to dissociate for 600 or 14000 s. The CM4 surface was regenerated after each injection cycle of analyte via two injections of 3M MgCl₂ at 50 μl/min. […]

The target is the same in test [3]. The description is as above. On the procedure:
as §3
Anti-human Fc monoclonal antibody from Biacore human Fc capture kit was immobilized onto flow cells of a CM4 sensor chip according to the manufacturer's instructions. The final immobilization level of capture antibody was approximately 2,000 RU in one experiment. […] Capture of the human anti-IL-21 antibody mAb37 was conducted by diluting the antibody to 0.1 μg/ml into running buffer (10 mM Hepes 0.3 M NaCl, 5 mM CaCl2, 0.05% surfactant P20, pH 8.0 containing 1 mg/ml BSA) and injected at 10 μl/min for 180 s in one of flow cells 2-4, creating a reference surface in flow cell 1 with only anti-Fc antibody immobilized. […] Binding of IL-21 protein was conducted by injecting analyte over all flow cells to allow for comparative analyses of binding to different captured anti-IL-21 antibodies relative to binding to the reference flow cell. IL-21 protein was diluted serially 1:3 to 0.2-54 nM into running buffer, injected at 100 μl/min for 210 s and allowed to dissociate for 600 or 14000 s. The CM4 surface was regenerated after each injection cycle of analyte via two injections of 3M MgCl₂ at 50 μl/min. This regeneration step removed the anti-IL-21 antibody and any bound IL-21 from the immobilized capture antibody surface, and allowed for the subsequent binding of the next interaction sample pair. […] No significant non-specific binding to the reference control surface was observed.
The source holds these as a separate data set.

Test [4] shares this target. Kind of test: cell-based or functional assay.
Test [5] has the same target. The test can be described thus: SPR Biacore T200, calculated KD; Exp 2. The protocol:
as §1, §2

The target is the same in test [6]. Kind of test: SPR Biacore T200, 25 C; mAb captured by anti-human Fc, hIL-21 analyte, 1:1 Langmuir; Exp 1. On the procedure: as §1, §2
Test [7] shares this target. Kind of test: SPR Biacore T200, calculated KD; Exp 1. The protocol:
as §1, §2

Test [8] shares this target. Kind of test: SPR Biacore T200; mAb captured by anti-human Fc, hIL-21 analyte. The protocol:
as §1, §2

The target is the same in test [9]. Kind of test: cell-based or functional assay. The source holds these as a separate data set.
Test [10] has the same target. Kind of test: crystal structure, Areaimol (CCP4). The protocol:
IL-21 (expressed in E. coli as the mature peptide; residues 30-162 of SEQ ID NO: 1 with an added N-terminal Methionine residue), in PBS buffer, pH 7.4 (4 tablets in 2 liter of water, GIBCO Cat. No. 18912-014 Invitrogen Corporation), and anti-IL-21 Fabs (comprising light chains and heavy chains corresponding to WT or mutants of SEQ ID No. 9 and 10, respectively, see example 6 and 14) formulated in PBS buffer, pH 7.4, were mixed in a 1:1 molar ratio. Crystals were grown with the sitting drop-technique with volumes according to Table 7. Total drop sizes were 0.2 or 0.3 μl, depending on the mixing ratio. Crystals were prepared for cryo-freezing by transferring of 3 μl of a cryo-solution, containing 75% of the precipitant solution and 25% glycerol, to the drop containing the crystal. Soakings were allowed for about one minute. The crystals were then fished into a MiTeGen MicroLoop™, flash frozen in liquid N2 and kept at a temperature of 100 K during data collection by a cryogenic N2 gas stream. Crystallographic data were collected at beam-line BL911-3 (Ursby et al., 2004) at MAX-lab, Lund, Sweden, to resolutions indicated in Table 8. Space group determination, integration and scaling of the data were made with the XDS software package (Kabsch, 2010). For the crystal complexes between hIL-21 and Fab56, Fab57 or Fab60, respectively, the Fab35/hIL-21 crystal structure were used as starting models for rigid body refinements in the Refmac5 software (Murshudov et al., 2011) of the CCP4 crystallography software suite (Bailey, 1994). Rigid body refinements were then followed by restrained crystallographic refinements, using the software programs Refmac5 and by computer graphics inspection of the electron density maps, model corrections and building using the Coot software program (Emsley et al., 2010). The procedure was cycled until no further significant improvements could be made to the model. Table 10, 11 and 13.
Table 9 show the calculated (by the software Areaimol (Lee & Richards, 1971, Saff & Kuijlaars, 1997)), average areas excluded in pair-wise interactions for the hIL-21/Fab56, hIL-21/Fab57, hIL-21/Fab59 and hIL-21/Fab60 complexes, respectively.

T1 sequence (Q9HBE4 other isoform, or with tags, fused parts or gaps): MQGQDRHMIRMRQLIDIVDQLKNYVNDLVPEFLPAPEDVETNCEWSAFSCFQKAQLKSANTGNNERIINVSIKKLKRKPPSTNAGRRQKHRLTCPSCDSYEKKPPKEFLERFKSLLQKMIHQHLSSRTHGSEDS

B1: mAb37 (hinge stabilized S241P version of mAb14) (antibody, human IgG4 S228P, kappa)
heavy: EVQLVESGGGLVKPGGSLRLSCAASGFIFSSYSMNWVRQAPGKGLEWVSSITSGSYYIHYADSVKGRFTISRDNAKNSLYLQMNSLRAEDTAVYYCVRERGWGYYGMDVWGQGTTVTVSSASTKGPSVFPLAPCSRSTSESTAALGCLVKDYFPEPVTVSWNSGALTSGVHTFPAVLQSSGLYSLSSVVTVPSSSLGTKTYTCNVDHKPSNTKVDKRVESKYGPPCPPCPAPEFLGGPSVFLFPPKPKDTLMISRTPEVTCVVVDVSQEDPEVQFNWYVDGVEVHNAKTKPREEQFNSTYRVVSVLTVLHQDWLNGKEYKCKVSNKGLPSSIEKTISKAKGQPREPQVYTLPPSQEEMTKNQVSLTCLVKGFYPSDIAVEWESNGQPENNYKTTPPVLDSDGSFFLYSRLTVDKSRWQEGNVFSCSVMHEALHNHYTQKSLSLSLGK
light: AIQLTQSPSSLSASVGDRVTITCRASQDIDSALAWYQQKPGKAPKILIHDASSLESGVPSRFSGSGSGTDFTLTISSLQPEDFATYYCQQFNSYPYTFGQGTKLEIKRTVAAPSVFIFPPSDEQLKSGTASVVCLLNNFYPREAKVQWKVDNALQSGNSQESVTEQDSKDSTYSLSSTLTLSKADYEKHKVYACEVTHQGLSSPVTKSFNRGEC
notes: Human IgG4(S241P), kappa; recombinant from HEK293-6E; also called WT mAb37
Turning to B1, the koff in test [1] is under 1e-05 s⁻¹; in test [3] it was 4.5e-06 s⁻¹ and 6.4e-06 s⁻¹; in test [6], under 1e-05 s⁻¹. Besides, the kon in test [1] was 660000 M⁻¹ s⁻¹ and 620000 M⁻¹ s⁻¹; in [3] it was 640000 M⁻¹ s⁻¹ and 600000 M⁻¹ s⁻¹; in [6], 570000 M⁻¹ s⁻¹ and 590000 M⁻¹ s⁻¹ and 580000 M⁻¹ s⁻¹. Further, the Kd in test [2] was under 0.02 nM; in [3], 0.007 nM and 0.0075 nM and 0.011 nM; in test [5], under 0.015 nM; in test [7], under 0.017 nM. Moreover, in [4], the “IC50 (nM) in B cell proliferation assay, Donor 1” value (from here on “IC50 (nM) … Donor 1”) is 0.14 nM. The “IC50 (nM) in B cell proliferation assay, Donor 2” value (from here on “IC50 (nM) … Donor 2”) in test [4] was 0.18 nM.

B2: mAb62 (mAb37 variant, heavy chain K65R) (antibody, human IgG4 S228P, kappa, V domains shown)
VH: EVQLVESGGGLVKPGGSLRLSCAASGFIFSSYSMNWVRQAPGKGLEWVSSITSGSYYIHYADSVRGRFTISRDNAKNSLYLQMNSLRAEDTAVYYCVRERGWGYYGMDVWGQGTTVTVSS
VL: AIQLTQSPSSLSASVGDRVTITCRASQDIDSALAWYQQKPGKAPKILIHDASSLESGVPSRFSGSGSGTDFTLTISSLQPEDFATYYCQQFNSYPYTFGQGTKLEIKR
notes: Human IgG4(S241P), kappa
On to B2, for which the Kd in test [8] is under 0.02 nM. Also, the “IC50 (nM) … Donor 2” value in test [4] was determined as 0.23 nM. Besides, the “Bioactivity as % of RM (mAb37), NK-92 assay (alamarBlue)” value (“Bioactivity as % of RM (mAb37)” below) in test [9] is 73.2 % of RM (mAb37). In addition, in [6], the koff is under 1e-05 s⁻¹; the kon is 560000 M⁻¹ s⁻¹ and 580000 M⁻¹ s⁻¹ and 600000 M⁻¹ s⁻¹. Moreover, in test [7], the Kd is under 0.017 nM.

B3: mAb61 (mAb37 variant, heavy chain D62E) (antibody, human IgG4 S228P, kappa, V domains shown)
VH: B2 VH with D62E, R65K
VL: B2 VL
notes: Human IgG4(S241P), kappa
As for B3, in test [8], the dissociation constant (Kd) was under 0.02 nM. Also, in test [1], the koff is under 1e-05 s⁻¹; the kon was 660000 M⁻¹ s⁻¹ and 670000 M⁻¹ s⁻¹. In [4], the “IC50 (nM) … Donor 1” value came out at 0.22 nM and the “IC50 (nM) … Donor 2” value stood at 0.21 nM. For the same molecule, the Kd in test [5] was under 0.015 nM. Further, the “Bioactivity as % of RM (mAb37)” value in test [9] was 86.2 % of RM (mAb37).

B4: mAb65 (mAb37 variant, light chain D30E) (antibody, human IgG4 S228P, kappa, V domains shown)
VH: B2 VH with R65K
VL: B2 VL with D30E
notes: Human IgG4(S241P), kappa
As to B4, the Kd in test [8] was under 0.02 nM. Also, in test [4], the “IC50 (nM) … Donor 1” value came out at 0.49 nM and the “IC50 (nM) … Donor 2” value is 0.19 nM. For the same molecule, the “Bioactivity as % of RM (mAb37)” value in test [9] is 96.8 % of RM (mAb37). In addition, in test [6], the koff was under 1e-05 s⁻¹; the kon is 520000 M⁻¹ s⁻¹ and 530000 M⁻¹ s⁻¹ and 540000 M⁻¹ s⁻¹. Also, the Kd in test [7] was under 0.019 nM.

B5: mAb63 (mAb37 variant, light chain R24K) (antibody, human IgG4 S228P, kappa, V domains shown)
VH: B2 VH with R65K
VL: B2 VL with R24K
For the molecule B5, in test [4], the “IC50 (nM) … Donor 1” value is 0.16 nM and the “IC50 (nM) … Donor 2” value is 0.25 nM. For the same molecule, the “Bioactivity as % of RM (mAb37)” value in test [9] was 92.1 % of RM (mAb37).

B6: mAb64 (mAb37 variant, light chain Q27N) (antibody, human IgG4 S228P, kappa, V domains shown)
VH: B2 VH with R65K
VL: B2 VL with Q27N
Turning to B6, in test [4], the “IC50 (nM) … Donor 1” value was found to be 0.8 nM and the “IC50 (nM) … Donor 2” value stood at 0.74 nM. Moreover, the “Bioactivity as % of RM (mAb37)” value in test [9] was 116 % of RM (mAb37).

B7: Fab35 (Fab fragment of mAb14/mAb37) (Fab, V domains shown)
VH: B2 VH with R65K
VL: B2 VL
notes: also called anti-IL-21 Fab35
On to B7, for which the “Avr Area (average areas excluded in pairwise interactions)” value (“Avr Area” below) in test [10] was found to be 1060 Å^2.

B8: Fab56 (Fab35 with H: D62E mutation; Fab fragment of mAb61) (Fab, V domains shown)
VH: B2 VH with D62E, R65K
VL: B2 VL
notes: also called aIL-21 Fab56
B8: the “Avr Area” value in [10] was found to be 1070 Å^2.

B9: Fab57 (Fab35 with H: K65R; Fab fragment of mAb62) (Fab, V domains shown)
VH: B2 VH
VL: B2 VL
notes: also called aIL-21 Fab57
Consider B9, for which the “Avr Area” value in test [10] turned out to be 1070 Å^2.

B10: Fab59 (Fab35 with L, Q27N mutation; Fab fragment of mAb64) (Fab, V domains shown)
VH: B2 VH with R65K
VL: B2 VL with Q27N
notes: also called aIL-21 Fab59
For the molecule B10, the “Avr Area” value in test [10] is 1170 Å^2.

B11: Fab60 (Fab35 with L, D30E mutation; Fab fragment of mAb65) (Fab, V domains shown)
VH: B2 VH with R65K
VL: B2 VL with D30E
notes: also called aIL-21 Fab60
B11: the “Avr Area” value in [10] came out at 1100 Å^2.
